In assay [1] the target is T1, soluble KIR3DL1*002-Fc (human, UniProt P43629 22-338).
T1 construct: also called KIR3DL1 allele 002; Allele 002; not shown: Fc domain
Kind of assay: SPR (BIACORE T-100). A general note: SPR reads the build-up and loss of mass on a sensor chip optically.

The target of assay [2] is T2, soluble KIR3DL1*033-Fc (human, UniProt P43629 22-340).
T2 construct: also called KIR3DL1 allele 033; Allele 033; not shown: Fc domain
The experiment in a line: SPR (BIACORE T-100).

Assay [3] concerns the target T3, soluble KIR3DL1*001-Fc (human, UniProt P43629 22-340).
T3 construct: also called KIR3DL1 allele 001; KIR3DL1 allele-001 antigen; not shown: Fc domain
The experiment in a line: SPR (BIACORE T-100).

The target in assay [4] is T1, soluble KIR3DL1*002-Fc. Kind of assay: BLI (ForteBio QK), hIgG1. On the technique in general: Biolayer interferometry detects binding as a change in optical thickness at a sensor tip.
For assay [5], the target named is T4, soluble KIR3DL1*007/015-Fc (human, UniProt P43629 22-338).
T4 construct: also called KIR3DL1 allele 007/015; CD158e allele 007/015; not shown: Fc domain
T4 sequence (P43629 other isoform, or with tags, fused parts or gaps): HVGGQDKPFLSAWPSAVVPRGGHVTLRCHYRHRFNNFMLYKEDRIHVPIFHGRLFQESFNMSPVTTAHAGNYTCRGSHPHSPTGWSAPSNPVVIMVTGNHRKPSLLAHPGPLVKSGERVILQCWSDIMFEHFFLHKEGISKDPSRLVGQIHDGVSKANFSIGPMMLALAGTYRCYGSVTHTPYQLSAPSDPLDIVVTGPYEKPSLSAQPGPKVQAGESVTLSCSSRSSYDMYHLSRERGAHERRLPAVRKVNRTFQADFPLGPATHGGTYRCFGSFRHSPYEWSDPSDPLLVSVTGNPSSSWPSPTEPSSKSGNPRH
The experiment in a line: BLI (ForteBio QK), hIgG1.

For a further assay, the target named is T5, soluble KIR3DL1*020-Fc (human, UniProt P43629 22-339).
T5 construct: also called KIR3DL1 allele 020; CD158e allele 020; not shown: Fc domain
T5 sequence (P43629 other isoform, or with tags, fused parts or gaps): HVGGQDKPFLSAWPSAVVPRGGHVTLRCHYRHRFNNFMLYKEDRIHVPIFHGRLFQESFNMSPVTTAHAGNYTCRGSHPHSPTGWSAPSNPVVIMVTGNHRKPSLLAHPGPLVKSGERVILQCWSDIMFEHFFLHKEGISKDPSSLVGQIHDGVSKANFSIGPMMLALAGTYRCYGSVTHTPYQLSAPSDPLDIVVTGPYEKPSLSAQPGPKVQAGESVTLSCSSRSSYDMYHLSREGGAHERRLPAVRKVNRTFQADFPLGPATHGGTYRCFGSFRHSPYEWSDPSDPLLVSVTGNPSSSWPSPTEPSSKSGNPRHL
Kind of assay: BLI (ForteBio QK), hIgG1.

For assay [6], the target named is T2, soluble KIR3DL1*033-Fc. The experiment in a line: BLI (ForteBio QK), hIgG1.
Assay [7] has as its target T3, soluble KIR3DL1*001-Fc. Kind of assay: BLI (ForteBio QK), hIgG1.
The target of assay [8] is T1, soluble KIR3DL1*002-Fc. Kind of assay: SPR (BIACORE T-100), kinetics.
For assay [9], the target named is T3, soluble KIR3DL1*001-Fc. Kind of assay: BLI (Forte-Bio), partial fit, IgG.
In assay [10] the target is T1, soluble KIR3DL1*002-Fc. The experiment in a line: SPR (BIACORE T-100), kinetics; Biacore T-100, allele 002.
Assay [11] deals with T3, soluble KIR3DL1*001-Fc. The experiment in a line: BLI (ForteBio QK), hIgG1; ForteBio, hIgG1, allele 001 (Table 2).

Data on six molecules can be found in patent publication US20200031927A1 (Memorial Sloan Kettering, published 2020).

Usually Kd stands for the equilibrium constant for the complex coming apart. By koff is commonly meant the rate constant with which the complex falls apart. Lower therefore signals slow dissociation. A word on the kon: it is the second-order rate constant of association. The low end stands for slow association, the high end for fast association.

T2 sequence (P43629 other isoform, or with tags, fused parts or gaps): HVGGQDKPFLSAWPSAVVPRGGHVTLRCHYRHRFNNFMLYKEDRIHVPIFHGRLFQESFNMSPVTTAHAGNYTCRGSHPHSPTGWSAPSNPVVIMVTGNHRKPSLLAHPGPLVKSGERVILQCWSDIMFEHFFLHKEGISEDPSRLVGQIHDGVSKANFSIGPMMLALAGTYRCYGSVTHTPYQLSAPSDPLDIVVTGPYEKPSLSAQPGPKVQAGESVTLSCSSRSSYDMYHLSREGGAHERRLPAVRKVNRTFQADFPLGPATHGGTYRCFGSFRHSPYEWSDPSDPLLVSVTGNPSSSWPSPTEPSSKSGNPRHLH

B1: ET160-61 (antibody, human IgG1, V domains shown)
VH: QVQLVESGGGLVQPGRSLRLSCAASGFTFDDYAMHWVRQAPGKGLEWVSGISWNSGSIGYADSVKGRFTISRDNAKNSLYLQMNSLRAEDTAVYYCASSLRYFEWPIDYWGQGTLVTVSS
VL: NFMLTQPLSVSESPGKTVTISCTANGGSLASKYVQWFQQRPGSSPTTVIYDDNLRPSGVPDRFSGSIDTSSNSAALTISGLKTEDEADYYCQSYDNSSVVFGGGTKLTVLG
notes: Tested as human IgG1 (hIgG1), lambda light chain
As to B1, the dissociation constant Kd in the assay with soluble KIR3DL1*002-Fc [1] amounted to 27.7 nM; in the assay with soluble KIR3DL1*033-Fc [2] it was 10.8 nM; in the assay with soluble KIR3DL1*001-Fc [3] it was 45.9 nM; with soluble KIR3DL1*002-Fc [4] it was 21.7 nM; in assay [5] it was 4.1 nM; with soluble KIR3DL1*020-Fc it was 19.4 nM. In addition, the Kd with soluble KIR3DL1*033-Fc [6] turned out to be 22.7 nM; with soluble KIR3DL1*001-Fc [7], 15.1 nM; with soluble KIR3DL1*002-Fc [8] it was 27.7 nM; with soluble KIR3DL1*001-Fc [9] it was 15.1 nM. Besides, the koff with soluble KIR3DL1*002-Fc [8] stood at 0.00232 s⁻¹; with soluble KIR3DL1*001-Fc [9], 0.00193 s⁻¹. In addition, the association rate constant (kon) with soluble KIR3DL1*002-Fc [8] stood at 84000 M⁻¹ s⁻¹; with soluble KIR3DL1*001-Fc [9] it was 127000 M⁻¹ s⁻¹.

B2: ET160-74 (antibody, human IgG1, V domains shown)
VH: QVQLVQSGAEVKKPGSSVKVSCKASGGTFSSYAISWVRQAPGQGLEWMGWMNPNSGNTGYAQKFQGRVTMTRNTSISTAYMELSSLRSEDTAVYYCARYSFHLDGWGQGTLVTVSS
VL: QSVLTQPPSVSAAPGQKVTISCSGSSSNVGNNYVSWYQQVPGTAPKLLIYDNNRRPSGIPDRFSGSKSGTSATLGITGLQTGDEADYYCGTWDNSLRVELFGGGTKVTVLG
notes: as for B1
For the molecule B2, the dissociation constant Kd is 108 nM with soluble KIR3DL1*002-Fc [1]; 62.2 nM with soluble KIR3DL1*033-Fc [2]; 11.9 nM with soluble KIR3DL1*001-Fc [3]; 8.6 nM with soluble KIR3DL1*002-Fc [4]; 10.1 nM in [5]; 11.2 nM with soluble KIR3DL1*020-Fc. The dissociation constant Kd was found to be 11 nM with soluble KIR3DL1*033-Fc [6], 13.3 nM in the assay with soluble KIR3DL1*001-Fc [7], 108 nM in the assay with soluble KIR3DL1*002-Fc [8] and 13.3 nM with soluble KIR3DL1*001-Fc [9]. For the same molecule, the dissociation rate constant (koff) with soluble KIR3DL1*002-Fc [8] came to 0.0112 s⁻¹; with soluble KIR3DL1*001-Fc [9], 0.00161 s⁻¹. The figures for the on-rate constant (kon) with soluble KIR3DL1*002-Fc [8] and with soluble KIR3DL1*001-Fc [9] were 103000 M⁻¹ s⁻¹ and 122000 M⁻¹ s⁻¹, respectively.

B3: ET160-42 (antibody, human IgG1, V domains shown)
VH: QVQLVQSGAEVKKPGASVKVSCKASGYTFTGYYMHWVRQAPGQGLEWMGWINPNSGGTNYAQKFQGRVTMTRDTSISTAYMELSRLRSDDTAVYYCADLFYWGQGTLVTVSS
VL: QSALTQPASVSGSPGQSITISCTGTSSDVGGYNYVSWYQQHPGKAPKLMIYDVSNRPSGVSNRFSGSKSGNTASLTISGLQAEDEADYYCSSYTSSNTLVFGTGTKVTVLG
notes: Tested as human IgG1 (hIgG1), lambda light chain; Clone from a human scFv phage display library
As for B3, the dissociation constant Kd in the assay with soluble KIR3DL1*002-Fc [1] was 93.5 nM; with soluble KIR3DL1*033-Fc [2], 75.2 nM; with soluble KIR3DL1*001-Fc [3] it was 89.5 nM; with soluble KIR3DL1*002-Fc [4], 8.5 nM; in [5], 8.4 nM; with soluble KIR3DL1*020-Fc it was 10.1 nM. Besides, the equilibrium dissociation constant (Kd) in the assay with soluble KIR3DL1*033-Fc [6] amounted to 10.3 nM; in the assay with soluble KIR3DL1*002-Fc [8] it was 93.5 nM; with soluble KIR3DL1*002-Fc [10] it was 93.5 nM; with soluble KIR3DL1*001-Fc [11], 12.9 nM. Also, the koff with soluble KIR3DL1*002-Fc [8] turned out to be 0.0171 s⁻¹; with soluble KIR3DL1*001-Fc [9], 0.00221 s⁻¹. Moreover, the kon amounted to 183000 M⁻¹ s⁻¹ in the assay with soluble KIR3DL1*002-Fc [8] and 172000 M⁻¹ s⁻¹ with soluble KIR3DL1*001-Fc [9].

B4: ET160-73 (antibody, human IgG1, V domains shown)
VH: QVQLVQSGAEVKKPGESLKISCKGSGYSFTSYWIGWVRQMPGKGLEWMGIIYPGDSDTRYSPSFQGQVTISADKSISTAYLQWSSLKASDTAMYYCARGREQLWLDGMDVWGQGTTVTVSS
VL: DVVMTQSPLSLPVTLGQPASISCRSTQSLVHSDGNTYLNWFQQRPGQSPRRLIYGVSNRDFGVPDRFSASGSGTDFTLKINRVEAEDVGVYYCMQGTHWPLTFGQGTKVEIKR
notes: Tested as human IgG1 (hIgG1), kappa light chain
Turning to B4, the Kd in the assay with soluble KIR3DL1*002-Fc [1] worked out at 124 nM; with soluble KIR3DL1*033-Fc [2] it was 55.6 nM; with soluble KIR3DL1*001-Fc [3], 136 nM; with soluble KIR3DL1*002-Fc [4], 16.3 nM; in assay [5], 16.1 nM; with soluble KIR3DL1*020-Fc it was 15.7 nM. Further, the Kd was determined as 14.4 nM with soluble KIR3DL1*033-Fc [6], 21.2 nM with soluble KIR3DL1*001-Fc [7], 124 nM with soluble KIR3DL1*002-Fc [8] and 21.2 nM in the assay with soluble KIR3DL1*001-Fc [9]. For the same molecule, the figures for the dissociation rate constant (koff) with soluble KIR3DL1*002-Fc [8] and with soluble KIR3DL1*001-Fc [9] were 0.00481 s⁻¹ and 0.00302 s⁻¹, respectively. The figures for the association rate constant (kon) with soluble KIR3DL1*002-Fc [8] and in the assay with soluble KIR3DL1*001-Fc [9] were 38900 M⁻¹ s⁻¹ and 143000 M⁻¹ s⁻¹, respectively.

B5: ET160-72 (antibody, human IgG1, V domains shown)
VH: QVQLVQSGGGVVRSGGSLRLTCAASGFTFGDYGMSWVRQAPGKGLEWVSGINWNGGGTGYADSVKGRFTISRDNAKDSLYLQMNSLRAEDTALYYCARVWGCGSTTCYEGADDAFDIWGQGTMVTVSS
VL: LPVLTQPPSISGAPRQRVTISCSGARSNIGNNAVNWYQQVPGEAPKLLIFYDDQQPSGISGRFSGSKSGTSASLAISGLQSEDEADYYCAAWDDSLNGWVFGGGTKLTVLG
notes: as for B1
With B5, the dissociation constant Kd with soluble KIR3DL1*002-Fc [1] came out at 316 nM; in the assay with soluble KIR3DL1*033-Fc [2] it was 138 nM; in the assay with soluble KIR3DL1*001-Fc [3], 182 nM; with soluble KIR3DL1*002-Fc [4], 11.6 nM; in assay [5] it was 11.6 nM; in the assay with soluble KIR3DL1*020-Fc it was 11.4 nM. In addition, the Kd with soluble KIR3DL1*033-Fc [6] is 15.4 nM; with soluble KIR3DL1*001-Fc [7] it was 15.8 nM; in the assay with soluble KIR3DL1*002-Fc [8] it was 316 nM; with soluble KIR3DL1*001-Fc [9], 15.8 nM. Further, the koff in the assay with soluble KIR3DL1*002-Fc [8] came out at 0.0159 s⁻¹; with soluble KIR3DL1*001-Fc [9], 0.00212 s⁻¹. Further, the kon with soluble KIR3DL1*002-Fc [8] stood at 50500 M⁻¹ s⁻¹; in the assay with soluble KIR3DL1*001-Fc [9], 134000 M⁻¹ s⁻¹.

B6: ET160-77 (antibody, human IgG1, V domains shown)
VH: EVQLVETGGGLVKPGGSLRLSCAASGFTFSDYYMSWIRQAPGKGLEWVSYISSSSSYTNYADSVKGRFTISRDNAKNSLYLQMNSLRAEDTAVYYCAREGIAAADAFDIWGQGTMVTVSS
VL: SYELTQPPSVSVAPGQAATITCAGDNIESKSVNWYQQKPGQAPVLVVYDDTVRPSGIPERFSGSNSGNPATLTISRSEAGDEADYYCQVWDNRRDHVVFGGGTKVTVLG
notes: as for B1
Turning to B6, the Kd with soluble KIR3DL1*002-Fc [1] is 197 nM; in the assay with soluble KIR3DL1*033-Fc [2] it was 48.3 nM; with soluble KIR3DL1*001-Fc [3] it was 53.1 nM; in the assay with soluble KIR3DL1*002-Fc [4] it was 10.9 nM; in [5], 11.4 nM; with soluble KIR3DL1*020-Fc, 10.5 nM. Moreover, the Kd came out at 13.1 nM with soluble KIR3DL1*033-Fc [6], 13.9 nM in the assay with soluble KIR3DL1*001-Fc [7], 197 nM in the assay with soluble KIR3DL1*002-Fc [8] and 13.9 nM in the assay with soluble KIR3DL1*001-Fc [9]. Further, the koff with soluble KIR3DL1*002-Fc [8] stood at 0.00987 s⁻¹; with soluble KIR3DL1*001-Fc [9], 0.00222 s⁻¹. Also, the on-rate constant (kon) with soluble KIR3DL1*002-Fc [8] was 50000 M⁻¹ s⁻¹; in the assay with soluble KIR3DL1*001-Fc [9], 160000 M⁻¹ s⁻¹.
